Substrate in the data set “purified protein”: O=CCO
Nature of the data set: purified protein. In kind it is biochemical, Carboxydothermus hydrogenoformans. As to conditions: hydroxypyruvate 100 mM as ketol donor, TPP, CaCl2, 10 mM HEPES pH 7.2, 0.1 M NaCl, room temperature.

Data set [1] deals with the molecule itself. Description: crystal structure; reconstituted ChTK-F α2β2 with TPP and Ca2+, 2.1 M DL-malic acid pH 7.0, space group I222, 1.4 Å (PDB 6YAK); also a PEG 1500 crystal form at 2.1 Å.
Data set [2] deals with the molecule itself. Description: SEC; each protein alone on a calibrated Superdex 200 HiLoad 16/60 column, 10 mM HEPES, 0.1 M NaCl, pH 7.2; apparent molecular mass.

B1: ChTK-F (Carboxydothermus hydrogenoformans Z-2901) (protein)
chain 1: MQDEILNLKLIANQLRQHVVKMVGEANSGHPGGSLSAADILAVLFFKEMRIDPANPKWQDRDRFVLSKGHASPVLYAALAERGFFPKEWLSQFRKINSPLQGHPDMKKVPGVEMSTGSLGQGFSTAVGMALGLKLDRSPARVYVLLGDGEIQEGIVWEAAMAAAHYKLNNLTAILDYNGLQIDGPVQEVMNPEPVADKWRSFGFKVITVDGHNIPEIINAIDAARLHLEGPTIIIAKTVKGKGVSFMENRVEWHGSAPKPEQVAEALSELQVGREKLWEE
chain 2: MGGIATREAYGKALVELGQENPKIVVLDADLSKSTKTSDFAKAFPERFFNMGIAEQNLMGVAAGLSTVGKIPFASTFAVFAAGRAFEIIRNSICYPKLNVKIAATHAGLTVGEDGASHQAIEDLALMRVLPNMQVFVPADAAQTRAIVKKAAEIEGPVYIRLGRSGVPEVFSPDIRFEPGRGTVLKEGKDVTIVALGIMTAKALEAAKMLEAEGIAARVVDMASLKPIDRELLVESARLTGAVVTAEEHSVIGGLGSAVAEVLSEEYPIPVVKVGVNDVFGESGTPQALLEKYGLTARDVVAAVQKALTLKR
notes: two split-gene subunits (alpha ChTK-N, PP domain)
For the protein B1, in the data set “purified protein”, the Km is on record as 41 ± 4 mM.

B2: ChTK-C, C-terminal 'split-gene' transketolase polypeptide (Pyr and C-terminal domains) of Carboxydothermus hydrogenoformans (natural protein, Carboxydothermus hydrogenoformans Z-2901)
chain: B1 chain 2
notes: Pyr domain residues 1-162 and C-terminal domain residues 164-312; calculated mass of the His-tagged protein 33.2 kDa; chain D of PDB 6YAK, all chains of PDB 6YAJ; The gene was cloned into the LIC site of pLATE51; By gel filtration the free protein elutes as a tetramer; two copies stand in the α2β2 heterotetramer ChTK-F; also called β subunit of ChTK-F (α2β2); ChTK β4; source: E. coli BL21 DE3*, …
In the case of B2, the “stoichiometry N” value is 2 in data set [1] and 4 in data set [2].

B3: ChTK-N, N-terminal 'split-gene' transketolase polypeptide (PP domain) of Carboxydothermus hydrogenoformans (natural protein, Carboxydothermus hydrogenoformans Z-2901)
chain: B1 chain 1
notes: forms the PP domain; calculated mass of the His-tagged protein 31.0 kDa; chain A of PDB 6YAK; The gene was cloned into the LIC site of pLATE51; By gel filtration the free protein elutes as a dimer; two copies stand in the α2β2 heterotetramer ChTK-F; also called α subunit of ChTK-F (α2β2); source: E. coli BL21 DE3*, purified (heat treatment at 50°C, HisTrap/Ni-NTA, Superdex 200 gel filtration)
With B3, the “stoichiometry N” value in data set [2] was found to be 2.

For the origin of these results see publication PMC7661550, “A ‘Split-Gene’ Transketolase From the Hyper-Thermophilic Bacterium Carboxydothermus hydrogenoformans: Structure and Biochemical Characterization” (Frontiers in Microbiology, 2020).
